Where a chain is given by its changes, count along the chain named. Numbers in names are those of the source.
B1: A298V: modified GLD: SEQ ID NO: 1 with substitution A298V (protein, listed as Aspergillus terreus)
chain: MLGKLSFLSALSLAVAAPLSNSTSAKYDYIVIGGGTSGLAVANRLSEDPNVNVLILEAGGSVWNNPNVTNVDGYGLAFGSDIDWQYQSVNQPYGGNLSQVLRAGKALGGTSTINGMAYTRAEDVQIDAWETIGNTGWTWKNLFPYYRKSENFTVPTKSQTSLGASYEAGAHGHEGPLDVAFTQIESNNLTTYLNRTFQGMGLPWTEDVNGGKMRGFNLYPSTVNLEEYVREDAARAYYWPYKSRPNLHVLLNTFANRIVWDGEAHDGHITASGVEITSRNGTVRVINAEKEVIVSAGVLKSPAILELSGIGNPSVLDKHNIPVKVNLPTVGENLQDQVNSHMDASGNTSISGTKAVSYPDVYDVFGDEAESVAKQIRANLKQYAADTAKANGNIMKAADLERLFEVQYDLIFKGRVPIAEVLNYPGSATSVFAEFWALLPFARGSVHIGSSNPAEFPVINPNYFMLDWDAKSYVAVAKYIRRSFESYPLSSIVKESTPGYDVIPRNASEQSWKEWVFDKNYRSNFHPVGTAAMMPREIGGVVDERLNVYGTTNVRVVDASVLPFQVCGHLVSTLYAVAERAADLIKADAGRR
modifications: SIGNAL (1)..(19)
B2: G352W: modified GLD: SEQ ID NO: 1 with substitution G352W (protein, listed as Aspergillus terreus)
chain: B1 chain with V298A, G352W
modifications: SIGNAL (1)..(19)
B3: G352S: modified GLD: SEQ ID NO: 1 with substitution G352S (protein, listed as Aspergillus terreus)
chain: B1 chain with V298A, G352S
modifications: SIGNAL (1)..(19)
B4: V338M: modified GLD: SEQ ID NO: 1 with substitution V338M (protein, listed as Aspergillus terreus)
chain: B1 chain with V298A, V338M
modifications: SIGNAL (1)..(19)
B5: G352T: modified GLD: SEQ ID NO: 1 with substitution G352T (protein, listed as Aspergillus terreus)
chain: B1 chain with V298A, G352T
modifications: SIGNAL (1)..(19)
B6: G352Q: modified GLD: SEQ ID NO: 1 with substitution G352Q (protein, listed as Aspergillus terreus)
chain: B1 chain with V298A, G352Q
modifications: SIGNAL (1)..(19)
B7: K354A: modified GLD: SEQ ID NO: 1 with substitution K354A (protein, listed as Aspergillus terreus)
chain: B1 chain with V298A, K354A
modifications: SIGNAL (1)..(19)
B8: K354C: modified GLD: SEQ ID NO: 1 with substitution K354C (protein, listed as Aspergillus terreus)
chain: B1 chain with V298A, K354C
modifications: SIGNAL (1)..(19)
B9: G352L: modified GLD: SEQ ID NO: 1 with substitution G352L (protein, listed as Aspergillus terreus)
chain: B1 chain with V298A, G352L
modifications: SIGNAL (1)..(19)
B10: G352M: modified GLD: SEQ ID NO: 1 with substitution G352M (protein, listed as Aspergillus terreus)
chain: B1 chain with V298A, G352M
modifications: SIGNAL (1)..(19)
B11: K354E: modified GLD: SEQ ID NO: 1 with substitution K354E (protein, listed as Aspergillus terreus)
chain: B1 chain with V298A, K354E
modifications: SIGNAL (1)..(19)
B12: G352V: modified GLD: SEQ ID NO: 1 with substitution G352V (protein, listed as Aspergillus terreus)
chain: B1 chain with V298A, G352V
modifications: SIGNAL (1)..(19)
B13: G352K: modified GLD: SEQ ID NO: 1 with substitution G352K (protein, listed as Aspergillus terreus)
chain: B1 chain with V298A, G352K
modifications: SIGNAL (1)..(19)
B14: K354D: modified GLD: SEQ ID NO: 1 with substitution K354D (protein, listed as Aspergillus terreus)
chain: B1 chain with V298A, K354D
modifications: SIGNAL (1)..(19)
B15: G352Y: modified GLD: SEQ ID NO: 1 with substitution G352Y (protein, listed as Aspergillus terreus)
chain: B1 chain with V298A, G352Y
modifications: SIGNAL (1)..(19)
B16: G352F: modified GLD: SEQ ID NO: 1 with substitution G352F (protein, listed as Aspergillus terreus)
chain: B1 chain with V298A, G352F
modifications: SIGNAL (1)..(19)
B17: G352I: modified GLD: SEQ ID NO: 1 with substitution G352I (protein, listed as Aspergillus terreus)
chain: B1 chain with V298A, G352I
modifications: SIGNAL (1)..(19)
B18: G352R: modified GLD: SEQ ID NO: 1 with substitution G352R (protein, listed as Aspergillus terreus)
chain: B1 chain with V298A, G352R
modifications: SIGNAL (1)..(19)
B19: K354F: modified GLD: SEQ ID NO: 1 with substitution K354F (protein, listed as Aspergillus terreus)
chain: B1 chain with V298A, K354F
modifications: SIGNAL (1)..(19)
B20: G352P: modified GLD: SEQ ID NO: 1 with substitution G352P (protein, listed as Aspergillus terreus)
chain: B1 chain with V298A, G352P
modifications: SIGNAL (1)..(19)
B21: G352N: modified GLD: SEQ ID NO: 1 with substitution G352N (protein, listed as Aspergillus terreus)
chain: B1 chain with V298A, G352N
modifications: SIGNAL (1)..(19)

Test: Relative enzymatic activity of GLD (DCIP/1-m-PMS, plate reader, yeast culture supernatant) with proflavin hydrochloride present
Assay type: biochemical
Settings: site-specific mutants, inhibitor final concentration 1 mM
Procedure: The susceptibility defined in the present specification is evaluated in terms of a relative activity that is determined in a system wherein the inhibitor coexists or not. The relative activity is derived from a relative value (%) of an enzymatic activity (a sample value) obtained with the addition of the inhibitor in the determination of the enzymatic activity described in the present specification as compared with an enzymatic activity (a blank value) as “100%” obtained without the addition of the inhibitor in the same determination. Thus, the higher the relative activity is, the less the susceptibility to the inhibitor is (or the more the susceptibility to the inhibitor is reduced), vice versa.
The enzymatic activity is determined in the following manner in Examples 3 and 6 wherein a plate reader (Japan Molecular Device Corporation, SpectraMax Plus384) is used. Thus, culture supernatant that had been diluted in advance with an appropriate magnification is added to a 96-well microplate with an amount of 100 μl per well. A reagent for the determination of the enzymatic activity comprising phosphate buffer (pH 7.0), 1.0 M D-glucose, 3 mM DCIP, 3 mM 1-m-PMS and methanol with a volume ratio of 0.1:1:0.14:0.2:0.06 is added to the 96-well microplate with an amount of 100 μl per well, and a change in the absorbance of DCIP at 600 nm (ΔABS/min) is then determined. The enzymatic activity can be calculated by conversion in proportion to a change in the absorbance of an enzyme solution for which the enzymatic activity has already been known by the above-mentioned activity determination procedure using the spectrophotometer.
In the following examples, a value of the enzymatic activity determined by the spectrometer or plate reader using the above reagent composition is considered as a blank value. On the other hand, a sample value is determined using a methanol solution comprising the inhibitor such as 1,10-phenanthroline or proflavin hydrochloride at a final concentration of 1 mM instead of the methanol. Enzymatic activity (unit/mL)=(−ΔABS/16.3)×3.0/0.05×(Dilution ratio of enzyme) [Equation 1]

Going from B1 to B2, the “Relative Activity [%] Proflavin hydrochloride” value falls from 51.2% to 48.1%.

Going from B3 to B4, the “Relative Activity [%] Proflavin hydrochloride” value rises from 38.7% to 55.0%.

Compared with B5, B6 is higher in “Relative Activity [%] Proflavin hydrochloride” value: 44.1% for the first, 56.4% for the second.

Going from B7 to B8, the “Relative Activity [%] Proflavin hydrochloride” value rises from 8.9% to 14.4%.

Compared with B9, B10 is higher in “Relative Activity [%] Proflavin hydrochloride” value: 43.7% for the first, 45.7% for the second.

Going from B11 to B12, the “Relative Activity [%] Proflavin hydrochloride” value rises from 20.7% to 41.6%.

Going from B13 to B14, the “Relative Activity [%] Proflavin hydrochloride” value falls from 32.7% to 11.6%.

Compared with B15, B16 is higher in “Relative Activity [%] Proflavin hydrochloride” value: 52.8% for the first, 56.9% for the second.

Going from B17 to B18, the “Relative Activity [%] Proflavin hydrochloride” value rises from 60.9% to 68.1%.

Going from B19 to B20, the “Relative Activity [%] Proflavin hydrochloride” value rises from 16.0% to 49.1%.

With B21 the “Relative Activity [%] Proflavin hydrochloride” value was 55.8%.

Test: Relative enzymatic activity of GLD (DCIP/1-m-PMS, plate reader, yeast culture supernatant) with 1,10-phenanthroline present
Assay type: biochemical
Settings: site-specific mutants, inhibitor final concentration 1 mM
Procedure, shortened: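 Yeast transformants grown in YPD, 30° C., 24 h; diluted culture supernatant assayed in phosphate buffer pH 7.0 with D-glucose, DCIP and 1-m-PMS, DCIP absorbance change at 600 nm. Relative activity (%) = activity with 1 mM 1,10-phenanthroline (final, replacing methanol) divided by activity without it.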

Going from B1 to B2, the “Relative Activity [%] 1,10-Phenanthroline” value rises from 62.2% to 81.2%.

Compared with B3, B4 is higher in “Relative Activity [%] 1,10-Phenanthroline” value: 62.9% for the first, 73.6% for the second.

Going from B5 to B6, the “Relative Activity [%] 1,10-Phenanthroline” value rises from 85.4% to 90.4%.

Going from B7 to B8, the “Relative Activity [%] 1,10-Phenanthroline” value falls from 66.2% to 62.6%.

Compared with B9, B10 is lower in “Relative Activity [%] 1,10-Phenanthroline” value: 80.7% for the first, 74.7% for the second.

Going from B11 to B12, the “Relative Activity [%] 1,10-Phenanthroline” value rises from 60.0% to 87.0%.

Going from B13 to B14, the “Relative Activity [%] 1,10-Phenanthroline” value falls from 82.5% to 70.8%.

Going from B15 to B16, the “Relative Activity [%] 1,10-Phenanthroline” value falls from 92.4% to 83.8%.

Compared with B17, B18 is lower in “Relative Activity [%] 1,10-Phenanthroline” value: 85.5% for the first, 80.3% for the second.

Going from B19 to B20, the “Relative Activity [%] 1,10-Phenanthroline” value rises from 47.8% to 89.8%.

In the case of B21, the “Relative Activity [%] 1,10-Phenanthroline” value is reported as 80.5%.

From patent US8969060B2, “Modified glucose dehydrogenase” (Ikeda Food Research Co., Ltd., priority 2011, dated 2015)
